Measurements as given in patent publication US20220408730A1, “PLANT TREATMENT” (INSTITUTO SUPERIOR DE AGRONOMIA, priority 2019, published 2022).
Entries after “also recorded” stand apart in the source; their conditions may differ.

Assays:
[1] = test system: P. cinnamomi; experiment: Potted young cork oak inoculated with P. cinnamomi, extension of root lesions; format: in vivo, Quercus suber; conditions: plants sprayed; for root lesion severity: compared with inoculated control
Description: In a separate experiment, potted young cork oak plants (Quercus suber) were inoculated with P. cinnamomi and incubated under greenhouse conditions. The plants were sprayed with potassium phosphonate, salicylic acid, Blad and other compounds/extracts under study. The severity of the infection was assessed by quantifying the extension of plant root lesions.

[2] = test system: P. chlamydospora; experiment: Pruning wound protection under real vineyard conditions, wounds brushed with P. chlamydospora spores; format: in vivo, grapevine; conditions: for fungi re-isolated in vitro from the treated wood: culture-dependent methods
Description: In an experiment designed as an attempt to protect pruning wounds from esca fungal infection, a couple of surprising observations were made when immediately after pruning under real vineyard conditions, the fresh wounds were brushed with 50 μl of water (control), or of Blad, the commercial fungicide Switch or copper oxychloride solutions (24 replicates for each treatment), and 24 h, 1 month and 2 months afterwards the pruning wounds were brushed with P. chlamydospora spore suspensions. […] On top of that, the diversity of fungi that could be re-isolated in vitro (using culture-dependent methods) from that wood was also lower. […] This remarks the efficient fungicide activity of the two chemicals on P. chlamyobspora, although this fungus seems to be less affected than other natural endophytes of the grapevine. The applicant's analyses of the mycobiome by metabarcoding using Illumina® next-generation sequencing (NGS) techniques detected only minor changes in some taxa composition and in colonization success of some endophytes in grapevine wood after a single copper application. The copper/systemic fungicides didn't change the mycobiome composition in major ways and didn't even directly advantage the pathogen.

[3] = test system: external fungi; experiment: Fungicides in vitro on potato dextrose agar Petri dishes; format: cell-based; conditions: PDA plus individual fungicides
[4] = Early growth at bud break after application onto pruning wound; format: in vivo, grapevine; conditions: 50 μl onto the pruning wound, one treatment per plant
Description: The photos were taken at the same plant a couple of months later, at bud break. Compare with the natural development state of the vineyard in the background. Twenty-four replicates were prepared for each treatment.

[5] = Growth of nine-week-old carrots in soil with skopobiota-loaded bentochar, with or without Blad spray; format: in vivo, carrot cv Nantes
Description: (§1) Twelve carrot seeds cv Nantes were sown in soil containing the different combinations of SLB described above, as well as in positive and negative controls, for a total of 12 treatments (see below). Four weeks after sowing, six mycelium plugs of Trichoderma gamsii were added to each treatment tests, with the exception of the ‘negative control’.
Nine weeks after sowing, carrots were examined for three parameters: (1) above-ground growth, (2) number of fully unfolded leaves, and (3) presence of necrotic lesions or browning in roots.
(§2) Similarly to what described in section ‘Effects on the growth of nine-week-old carrots’, the same skopobiota-loaded bentochar treatments were tested also in combination with a weekly spray of Blad on carrot leaves. The tested Blad concentration was 2 mL Blad per L of water.
The same parameters described in ‘Effects on the growth of nine-week-old carrots’ were assessed.

[6] = test system: grapevine wood mycobiome; experiment: Grapevine wood mycobiome composition and networks after fungicide treatments (metabarcoding); format: in vivo, Vitis vinifera cv Cabernet Sauvignon; conditions: foliar application / spray
Source text: Wood samples were carefully collected from grapevine rooted cuttings of Vitis vinifera cv Cabernet Sauvignon grown under greenhouse conditions, which underwent different inoculations and fungicide treatments and their mycobiomes identified by metabarcoding using Illumina® next-generation sequencing (NGS) techniques. The barplots represented in FIG. 2 show the relative abundances of grapevine wood taxa in plants subjected to different fungicide treatments and inoculation types.
FIG. 4 illustrates the effect of fungicide applications on the grapevine wood relative taxa abundance.
In FIG. 4, the differential heat tree matrix depicts the changes in taxa abundance between different fungicide treatments. The size of the individual nodes in the grey cladogram depicts the number of taxa identified at that taxonomic level. The smaller cladograms show pairwise comparisons between each treatment, with the colour illustrating the log2 fold change: a red node indicates a lower abundance of the taxon in the tissue group stated on the abscissa, than in the tissue group stated on the ordinate. A blue node indicates the opposite.
The networks presented in FIG. 5 show how Blad creates a different link among taxa, when compared with control and other fungicides.

[7] = test system: Trichoderma gamsii; experiment: Root browning and necrotic lesions score in carrot roots; format: in vivo, carrot cv Nantes
Description: as §1
A combination of factors, in which the presence of Trichoderma gamsii was determinant, induced the presence of root browning and necrotic lesion, as shown in FIG. 32.
Carrot roots of each biological replicate, grown under different treatments, were examined to assess differences in the development of root browning and necrotic lesions.
as §2

[8] = test system: Phaeomoniella chlamydospora; experiment: Relative abundance of P. chlamydospora in wood of potted grapevine cuttings (metabarcoding, greenhouse); format: in vivo, Vitis vinifera cv Cabernet Sauvignon; conditions: for relative abundances (%) of P. chlamydospora: fungicide treatment per column
Source text: Wood samples were carefully collected from grapevine rooted cuttings of Vitis vinifera cv Cabernet Sauvignon grown under greenhouse conditions, which underwent different inoculations and fungicide treatments and their mycobiomes identified by metabarcoding using Illumina® next-generation sequencing (NGS) techniques.
On top, barplots grouped by ‘Inoculation’ type; bottom, barplots grouped by ‘Fungicide’ treatment.
In a subsequent experiment (see also below), potted vines were co-inoculated with P. chlamydospora and a skopobiota (spore suspensions from four fungal species naturally occurring in the grapevine microbiome).
C22 and Aureobasidium pullulans AU86. All fungi were maintained in Petri dishes with vents, on potato dextrose agar medium (Difco™), at 25° C., in the dark.

[9] = With Blad, weekly spray on leaves, 2 mL Blad per L of water

potassium phosphonate [reference compound]
root lesion severity [1]: lower than the inoculated control

O=C(O)c1ccccc1O [salicylic acid, reference compound]
root lesion severity [1]: lower than the inoculated control

[Cl-].[Cu+2].[Cu+2].[OH-].[OH-].[OH-] [copper, copper oxychloride]
fungi re-isolated in vitro from the treated wood [2]: nothing but P. chlamydospora could be re-isolated | brown streaking of artificially infected shoots ([2]; fresh pruning wounds brushed with 50 μl, then P. chlamydospora spores): darker brown streaking | contamination of PDA Petri dishes containing the fungicide [3]: to a minor extent

B1: Blad: 173-residue polypeptide (SEQ ID NO: 4), residues 109-281 of Lupinus β-conglutin precursor; main subunit of the 210 kDa oligomer BCO (protein)
chain: ARGARGGLNARGASNPRTYRHISPHESERSERGLNARGPHEGLNTHRLETYRLYSASNARGASNGLYLYSILEARGVALLEGLARGPHEASPGLNARGTHRASNARGLEGLASNLEGLNASNTYRARGILEVALGLPHEGLNSERLYSPRASNTHRLEILELEPRLYSHISSERASPALAASPTYRVALLEVALVALLEASNGLYARGALATHRILETHRILEVALASNPRASPARGARGGLNALATYRASNLEGLTYRGLYASPALALEARGILEPRALAGLYSERTHRSERTYRILELEASNPRASPASPASNGLNLYSLEARGVALVALLYSLEALAILEPRILEASNASNPRGLYTYRPHETYRASPPHETYRPRSERSERTHRLYSASPGLNGLNSERTYRPHESERGLYPHESERARGASNTHRLEGLALATHRPHEASNTHRARGTYRGLGLILEGLNARGILEILELEGLYASNGLASP
fungi re-isolated in vitro from the treated wood [2]: many other endophytes | early growth several months after pruning [4]: boost observed in the early growth | Above-ground growth (% of control) Mean ± SD [5, 9]: 98% ± % of control | Number of leaves (% of control) Mean ± SD [5, 9]: 108% ± % of control | number of leaves of carrots ([5]; in words, compared with treatments without Blad): increases the overall number of leaves | above-ground growth of carrots ([5]; in words, weekly spray with Blad): positively affected | changes in the grapevine wood mycobiome [6]: created a different network of interactions in the wood mycobiome; also recorded: induced marked changes in the grapevine wood mycobiome | root lesion severity versus non-inoculated control [1]: did not differ significantly from the non-inoculated control | root lesion severity [1]: only treatment producing excellent results on the infection levels; also recorded: lower than the inoculated control | root lesion severity ([1]; listed as BLAD): lowest lesion severity | Total score of root symptoms ([7]; With Blad, weekly spray, 2 mL Blad per L of water): 2 | root symptomatology compared with the positive control ([7]; in words): strongly reduced the development of root symptoms | relative abundances (%) of P. chlamydospora ([8]; NO-INOCULATION, potted rooted grapevine cuttings, greenhouse): 3.78% | relative abundances (%) of P. chlamydospora ([8]; inoculated with P. chlamydospora + skopobiota at separate locations in the trunk): 1.34% | relative abundances (%) of P. chlamydospora ([8]; inoculated with P. chlamydospora alone): 6.31% | relative abundance of P. chlamydospora ([8]; potted vines co-inoculated with P. chlamydospora and a skopobiota (four fungal species)): 1% | relative abundance of the inoculated pathogen ([8]; potted vines inoculated with P. chlamydospora and sprayed): 6%
